The supplement of paper PMC9170038

Test system: MS2 coat protein
Assay: apparent KD of MS2 coat protein; higher = weaker reporter binding
Conditions: Eterna round: R107
Experimental: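 RNA-MaP round R107: designed RNA switches with theophylline, tryptophan, arginine or FMN aptamers are transcribed on-chip within common flanks. They are titrated with SNAP-549-labelled MS2 coat protein in RNA-MaP buffer (100 mM Tris pH 7.5, 80 mM KCl, 4 mM MgCl2), without ligand or with the indicated ligand. Median apparent KD per design.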

[1] = input ligand: theophylline 20 uM
[2] = input ligand: tryptophan 2.4 mM
[3] = input ligand: theophylline 2 mM

Row | Sequence | apparent KD of MS2 coat protein (input ligand: arginine 13.2 mM) [nM] | apparent KD of MS2 coat protein [1] [nM] | apparent KD of MS2 coat protein [2] [nM] | apparent KD of MS2 coat protein [3] [nM] | apparent KD of MS2 coat protein (input ligand: none) [nM]
1 | ACGUCACGUUUACUCGUGGUUUCGUUCGAUACCAGUAGCGAGAGUUACCCUUGGCAGCGACAUGAGGAUCACCCAUGUACGAAGA [XTheo A #24] | 12.7 | 15 | 12.9 | – | –
2 | ACGUCUCGUUUACUCGUGGGUUAGCUCGAUACCAGUAUUCAAACUUACCCUUGGCAGCGACAUGAGGAUCACCCAUGUGCGAAGA [XTheo A #23] | 17.3 | 20.5 | 17.5 | – | –
3 | ACGUGGAAAAUUUGUGGUGCUGCCUCAGGCCGAGGACCGGUACGGCCGCCACUCGUACAUGAGGAUCACCCAUGUCGAGUCACUG [Isanso] | 19.2 | 48 | – | 47.4 | –
4 | ACUAGGCUCGGAAACGAGCCUAGGACAGAAGGAGCGUGGAUUAACACAGGUAGGUCGCUGACAUGAGGAUCACCCAUGUAUUAUU [SSAA #2] | 24.5 | 38.6 | 28.9 | 25.3 | 24.9
5 | ACUAGUUGUGCAGAUACCAGACAUGAGGAUCACCCAUGUUUGGGAUCUUCGGAUCUUCCUGUCCCUUGGCAGCUGUACAUCUAGA [Omei Theo B Exc v3] | 62.6 | 178 | 125 | – | –
6 | ACUAGUUGUGCAGAUACCAGACAUGAGGAUCACCCAUGUUUGGGAUGUUCGCAUCUUCCUGUCCCUUGGCAGCUGUACAUCUAGA [Omei Theo B Exc v4] | 60.9 | 145 | 86.2 | – | –
7 | ACUAGUUGUGCAGAUACCAGGCACGAGGAUCACCCGUGUUUGGGAUGUUCGCAUCUUCCUGUCCCUUGGCAGCUGUACAUCUAGA [Omei Theo B Exc v9] | 29.6 | 54.3 | 37.4 | 155 | 30.9
8 | ACUCGGUAUGUCUAAUACCGAGAGUAUGAUACCAGUAUGGUGACAUACCCUUGGCAGCAUGGGACAUGAGGAUCACCCAUGUGUU [SSThA NP+V+V2 #10 Same Structure] | 119 | 465 | 588 | – | –
9 | ACUGACUUUACGGCCGCCACUCAUUGGCACGUGUCAUGUCAACAUGAGGAUCACCCAUGUAUGAUGAGGACCGGGUAAGGGCUGC [theeternabot_exclusion_MS2_Trp_B_2] | 8.71 | 13 | – | 11 | –
10 | ACUUCAUGAGGUGAUACCAGCCAAUGACAUGAGGACAUGAGGAUCACCCAUGUUUAUGUAGGCCCUUGGCAGCAUUGUAACAUGA [Same State Theophylline B 4] | 101 | 126 | 28.4 | – | –
11 | AGAACUUUGGUGGAUACCAGCUUCUGGCCAUCCUUCAAAUACAUGAGGAUCACCCAUGUUAGCCCUUGGCAGCCAACAUAGACUG [theeternabot_exclusion_MS2_Theo_B_44] | 21.7 | 33 | 21.6 | – | –
12 | AGAAUAACACAUGAGGAUCACCCAUGUGAUACCAGCUAGGAAACUAGCCCUUGGCAGCACAUAAUCCUCAUGAAUGUGCUGAAUA [(M1)-(M2)-(T1)-(T2)-(M)'-(T)'_Design3_2/19/17] | 37.3 | 121 | 59.7 | – | –
13 | AGAAUAACAUGAGCAAAGCUCAUGUGCGAAGGAGCGGCGGAAACGCCAGGUAGGUCGCGCACAUGAGCAUCAGCCAUGUGUACCA [Omei Arginine B SS A v5] | 11.5 | 201 | 58.9 | 65.8 | 30.7
14 | AGAAUACAUGUUUUAAUACGGAAAACUGAUACCAGUGUAUCUAUUCACCCUUGGCAGCAGAGACAUGAGGAUCACCCAUGUAUUA [JR_Nu_SSTheophyA_Sub019] | 28.1 | 41.2 | 46.6 | – | –
15 | AGACAUGAGGAUCACCCAUGUAGUACGGAUACCAGAUCCAGAUGUAUCCCUUGGCAGCUGUGGUACAGCGUUGCAACGCUCCUAG [Exclusion - Theophylline A (Freestyle 18)] | 15 | 23.9 | 15.2 | – | –
16 | AGACAUGAGGAUCACCCAUGUAGUACGGAUACCAGAUCCAGAUGUAUCCCUUGGCAGCUGUGGUACAGCGUUGCAUCGCUCCUAG [Exclusion - Theophylline A (Freestyle 19)] | 13.1 | 20.6 | 14.4 | 20.1 | 16.6
17 | AGACAUGAGGAUCACCCAUGUAGUAUGGAUACCAGAUCCAGAUUUAUCCCUUGGCAGCUGUGGUACAGCGUUGGAUCGCUCCUAG [Exclusion - Theophylline A (Freestyle 12)] | 22.3 | 34.6 | 27.8 | – | –
18 | AGACAUGAGGAUCACCCAUGUAGUAUGGAUACCAGAUCCAGAUUUAUCCCUUGGCAGCUGUGGUACAGUGAUGGAUUGCUCCUAG [Exclusion - Theophylline A (Freestyle 9)] | 30.4 | 52 | 32.7 | – | –

Row | Sequence | apparent KD of MS2 coat protein (input ligand: arginine 13.2 mM) [nM] | apparent KD of MS2 coat protein [1] [nM] | apparent KD of MS2 coat protein [2] [nM] | apparent KD of MS2 coat protein [3] [nM] | apparent KD of MS2 coat protein (input ligand: none) [nM]
19 | AGACAUGAGGAUCACCCAUGUAGUAUGGAUACCAGAUGUAGAUUAGUCCCUUGGCAGCUGUGCUGAAGUGAUGCAUUGCUCCUAG [#15 Exclusion-TheophyllineA] | 21.9 | 33.5 | 23.6 | 24.2 | 22.1
20 | AGAUGAGUCACGGCCGCCACUCACUACAGGUUCACCCUUGGUUAACAUGAGGAUCACCCAUGUGGGAGGACCGGGUGAUGAGCAU [XTryp B #4] | 18.5 | 32.7 | – | 25.6 | –
21 | AGAUGAGUCACGGCCGCCACUCUUAUCAGGAUCACCCAUGGUUAACAUGAGGAUCACCCAUGUCUGAGGACCGGGUGAUGAGCAU [XTryp B #2] | 18.3 | 31.4 | – | 25.3 | –
22 | AGAUGAGUCACGGCCGCCACUCUUCACAGGUUCACCCUUGGUUAACAUGAGGAUCACCCAUGUGGGAGGACCGGGUGAUGAGCAU [XTryp B #5] | 14.2 | 17.3 | – | 15.6 | –
23 | AGAUGUAGCGGAAGGAGCGACUUGAGGAUCACCCAAGUCUCCCGUUGUGGGAGUUCCUUAGGUCAGGUAGGUCGCCGUUACGUCA [Omei Arg B SS B v3] | 31.6 | 154 | 82.8 | 310 | 145
24 | AGAUUACAUGUUUUAAUAAGAUAAACUGAUACCAGUGUAUAUAUUCACCCUUGGCAGCAGCAACAUGAGGAUCACCCAUGUAUUA [JR_SSTheophyA_Sub015] | 14.4 | 18.7 | 16.7 | – | –
25 | AGAUUCGACACGGCCGCCACUCGUGGAGGAUUACCGAGUGUCGAACAUGAGGAUCACCCAUGUACGAGGACCGGGUGUUGAGUCU [XTryp B #15] | 23.5 | 32.2 | 179 | 28.5 | 27.3
26 | AGAUUCGACACGGCCGCCACUUGUGGUGGAUUAUCCUGUGUCGAACAUGAGGAUCACCCAUGUACAAGGACCGGGUGUUGAGUCU [XTryp B #20] | 60.2 | 151 | – | 136 | –
27 | AGCAAGUUCGGAAGGAGCGGUACAUGAGGAUCACCCAUGUAUUCAAUCGUGAUCGGAACGUGCCAGGUAGGUCGCCGAAUGCGUC [XArg-B1] | 13.3 | 23.1 | 15 | 15.9 | 13.1
28 | AGCACGGUGAUGGUAGCCGGACGCUAGGUACGAGGACCGGUACGGCCGCCACUCGAAGUCCUACGACAUGAGGAUCACCCAUGUA [Same State Trp A GF13] | 37.9 | 59.2 | – | 75.2 | –
29 | AGCAGCUCGAAAGAGUUGCACUCAUGUGAAGGAGCGCGCGUUAGCGCAGGUAGGUCGCACAUGAGGAUCACCCAUGUACCUUCUA [MAT - Exclusion Arginine A - Mod of Eli - D15] | 87.3 | 211 | 108 | 268 | 173
30 | AGCAGUACAACAGAUACCAGACUUUUCAUGCCUUUAAUUACAUGAGGAUCACCCAUGUUUGUCCCUUGGCAGCUGUUGUACUGCA [JR_ExcTheophyB_Sub011] | 29.5 | 62.8 | 39.9 | – | –
31 | AGCAUGUUAUCAGAUACCAGACAUCUUUUAAUACAUAUUACAUGAGGAUCACCCAUGUUGGUCCCUUGGCAGCUGAAAUAUUUCA [JR_Nu_SSTheophyB_Sub023] | 124 | 223 | 360 | – | –
32 | AGCCCGGGAGCGGCCGCCACUGGAGGCUUUGCGCGACAUGAGGAUCACCCAUGUGUGCCCGGCGUUAGGACCGGGCUCGCGUGGU [#1 Same State - Tryptophan B Attempt #21 (HarryS)] | 27.8 | 32.5 | 46.9 | 55.3 | 33.4
33 | AGCCCGUGAGCGGCCGCCACUGGAGGCUUUGCGCGACAUGAGGAUCACCCAUGUGUGCCCGGCGUUAGGACCGGGUUCACGUGGU [#1 Same State - Tryptophan B Attempt #19 (HarryS)] | 59.4 | 226 | 124 | 838 | 304
34 | AGCCCGUGAGCGGCCGCCACUGGAGGCUUUGCGCGACAUGAGGAUCACCCAUGUGUGCCCGGCGUUAGGACCGGGUUCGCGUGGU [#1 Same State - Tryptophan B Attempt #18 (HarryS)] | 30 | 48.7 | 32.4 | 45.4 | 38.5
35 | AGCCCUGUGCUAGAUACCAGCUACAUGAGGAUCACCCAUGUGCGUCAGAAAUGACUGUGUAGCCCUUGGCAGCUAAAUGCAUGUA [Exclusion - Theophylline B (Freestyle 7)] | 13.8 | 16.5 | 11 | – | –
36 | AGCCGCGUUCUUUCUUUCUUUCUAGCGGCACGAGGACCGGUACGGCCGCCACUCGCCCACAUGAGGAUCACCCAUGUAGUGGGUG [The One Ring #2] | 18.5 | 27.7 | – | 23.9 | –
